Experimental data from PMC13038408.

Biological target: RSV90 IgG (human)
Assay: SPR

RSV90 IgG (human), sequence (heavy, as listed by the source, chain 1 of 2): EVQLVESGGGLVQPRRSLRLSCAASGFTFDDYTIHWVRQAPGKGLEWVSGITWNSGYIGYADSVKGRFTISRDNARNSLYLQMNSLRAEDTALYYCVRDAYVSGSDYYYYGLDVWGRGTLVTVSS
RSV90 IgG (human), sequence (light, as listed by the source, chain 2 of 2): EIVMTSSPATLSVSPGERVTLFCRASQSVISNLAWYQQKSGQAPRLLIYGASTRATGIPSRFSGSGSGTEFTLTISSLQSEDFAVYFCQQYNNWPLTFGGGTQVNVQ

B1: RSVF-multi-4 (designed binder)
chain: MKLVIARVKSPKVKRLSEEDIEKIKSALKSTNKAVVTIKDENGEEIEVEVRLLTLEEALKYINDLPISNDAKKLMSNNIHKALEPGRTVVFGPEGCEERDKNRGIIKTFSTDVKLDETYFFFRVE
Q: B1 was tested. Which Kd did it give?
A: > 10 µM

B2: RSVF-multi-3 (designed binder)
chain: DDLVDIFLRAFAKAAKVTRFDKNRGIIKTFSEEETEKLFKSLTEEEVEKIESALKSTNKAVVVLGDGDIEIEIDLDKLYALINDLDISNDQKKEMSNNFFEYLRKIAKK
Q: How did the Kd turn out when B2 was run?
A: > 10 µM
